Experimental data reported in the DeepSol protein solubility set.

experiment: soluble on expression in E. coli; label from the status in PepcDB or PDB records

Sequence | soluble on expression in E. coli
SLLQLNSPHVHNLFNTPFSAAIMDDVVIGLEVHVQLNRLRTKLFCSCPLNYHQSPPNTHVCPVCLGMPGAMPVINKEAVKAAVKVAMALNAEIQPFTVFDRKNYFYPDLPKGFQISQYDRPLALGGYVTIELDGQEKRIQLKRVHMEEDPGKLSYKGSITTAKYSLIDYNRSGAPLLEIVTEPVMNSPKEARLFLNKLRMILEYLEVFDGDLEGAMRVDANISIRGSGRVEIKNISSFKGVEKALSYEIMRQKNLLQRGRSVVRETRHFDEARNITVSLRSKEEEQDYRYFPEPDLVPVLTEEIVREVEGTLPEMPEEKRERLKRQYGIGDNFAKVLILDVKMADYFEEVAKLVDPKLAASWIVDVLRGELNYRDWSFAKCWEVFKPEEFAKLLKYFEEDRITEKGVVEVIRTKLDEGGEIDAIIQKKGLFAIPKEEIIKFCKEAIEENPKAVEDYLSGKRQALNFLVGQVMKKTRGRADPADTAKLIEEMLS | soluble
SLNAFDELVFAPMYVTSVDGRQAGVFHAHKGRRLIAAHRKAGTTPFVGASRVNNSITGFADTPALFPGGWITLIYNGDGGTGHAKYQPAPFNASDDVIALEPISKQATEPALLLIASMLTLQCVPKFGFGYKLTLHRLDRQKIMIPVLTNADGEQVVNWSGLTRHGKRLLNEAKTRARAVRELTSTAKPKLPELNYMPMFITDVFESMNAAGKWFDFAKACLSGKPFAPYIARSGGGNGVGSFVPHQGFAPPNAGNAITIGVSTSTVFYQPVPFYTSKEIQVLRHHKLTADSGLILVALLREQMGKFQWGNGASLERLKATRIMVPAMVGADGEDVVDWDGLSRYGRALRARVELAINAVL | not soluble
SLNVVLIVEDEILEQEFLKTMVLGELSPEDKVLTTESGIQAVQLAKQHRPNIIIMDLMIAEVDGLTAIQDIRKFLPNACITILSAYSDFSYAQKAINLKVFEYLLKPVKPSAFKEIFKKMLEIAHEESMISEPIEKTFLPLQEEHQSFIQESVTYIQEHFKEKLTLEMTASRVFMNPKYFSRVFKKEMGISFTEFIIQLRIQYACRLLETTNYPAYRISSECGFSDPSYFNRVFCAQLNMTPQTYRKNSQAQQHEG | soluble
SLQSYQSVDSIRAAALATVGPDAEAEATLDPGLRMPGCPIALQAKPTGTNTVEVACPQPAGWRLFVPLKVRRNQDVLVLRRGISAGETISLADISIEKRDAARIVGAVLADPVAAVGKTARRILPAGSLLSANDLVSQRLVRRGDTVPLVSRNGGLEVRMSGRALSDAGENERVSVENSSSRRVVQGIVEASGTVVVSR | soluble
SLQTNKASTGLKTDQSFNNSLSESVKLKEIADIYPTNTNFLTGIGIVAGLAGKGDSIKQKDLIIKILEENNIINEIGSNNIESKNIALVNVSLQVKGNTIKGSKHKACVASILDSKDLTNGILLKTNLKNKEGEIIAIASGITQPNNKLKGSGYTIDSVIINENQNINHSYNIILKKGNYTLINRIHKILTSKKINNKIKSDSTIEIEAKNISLLEEIENIKIETNPKILIDKKNGIILASENAKIGTFTFSIEKDNQNIFLSKNNKTTIQVNSMKLNEFILKNSNNLSNKELIQIIQAAQKINKLNGELILEEIDGNQN | soluble
SLRKVGLTALEWLKQHPEIKQHKESSLYEQLFASQQWQQAQTIGMIRSLPLELSTQPIFERAMQESKQVAVPRTFKGGKMHFYQVFPETVYDTSAFGVEEPPLTAAEITATAIDLLIVPGIVFNRAGYRIGFGGGFYDRYLEHFSGHSCSLVFSEQLHEQWQPEAFDQPIEQLFIQ | soluble
SLRLKLSLTPKQDFSFDKINKHTIQGFIYSLLKDTEFGEMHNQPRFKFWCFSDIFPPNDFVKGEDKYLLISSPREEFINVLYERLDNLEEVNLNNFKFEVSELKKFDLKVKNKFITGSPIVLYKDKDRGEYIKFYDDDFDLMFFVQRLQDNAVKKYKAFYNEEPVLNGFIFDRISPRVRNGRVDVYVRIAKKGREFLVVGTTWKLLEKIKIRKEERKFYKFIMDCGLGEKNSLGFGFINPIK | not soluble
SLRLTQGLFRFPLAGLLCLSTAAFAESQLSVRVTPANAALKANIEAYVGSLGERDEAALQRFRRNAEAQAEKAAQALGYFQAQIDSEVKDGKPPKLTLKVVPGEPVRLRQVNIQVLGEAASLESFRLPSGKQLKPGAKLNQGVYEDAKRLIQNQASRYGFFQGRFSTQRLSIDPRAGIADIDLVYDSGQRYTFGKVSFDGDSIIEEELLRRMVPFKAGQPYDSELIAELNQNLQSSGYFEGVRVDAAPTQAQADGARQAIPVAVRLEARKPRTMGVGLGFSTDVGARARFNWTRHWVNAEGHSLGFESEISAPRQNVGAWYEIPLDPPLTDKLRFTSGYQFEDLVDTESKLLTLGGEWHSKRPDGWQRVVSLNWMREEYKLGDDSGLSSFLMPGIGYSLLETDNKVDPSHGYRLQFNVKGAKEGLLADADVLHVDAMAKGLTSFAGGHRLLGRLQVGGIATNDYKSIPPSLRFFAGGDQSVRGYDYRTLSPENSDGDKIGGRYMIAGSVEYQYPLAERWRLATFVDQGNAFNSLDFPSIKTGVGFGVRWVSPVGPLRLDLAHALDDDGGFRLHFSMGPEL | soluble
SLSDTLNSLQLGERPEGRTLLTASWVVGHKDGSHRLLKNGEVVFENGEILFVGHGFPGEVARRIDFGNALVSPGLIDLDALSDLDTTILGIDHHPGWAKGRVWPRSYVEAGPYEMYSAEELAFQKRFAFGQLLLNGITTAAPIASLFYRAWGETVAEFEAAADAAGELGLRVYLSPAFRSGGMVLEEPGRMFPVFDEERGFQGLKEAIAFIEKQSGRHGDLVRGMLAPDRVETSTLGLIERTDAAARELGCKFRLHMAQGVMEVDTVRKLHGSTAPVWLAKAGLLSERLIAPHATNATEEDLALYAENGVSIVHCPLVSSRGGSTLSSFSSCRKRGINIAMGTDTAPADMFMNLLVGLITCRINDGAPDQIRCADLFDAATLGGARALGRSDLGHLSSGARADIAVFDLDDAVMAPSVDPITTLVTGGSGKVTRAVFVDGRLSMRERQVAHIDMRRAREQAQAQFDRLIAKYPERSWANPPVSEIFPPSYQVEVAQHG | not soluble
SLSETLYTGISQLATPRPGPQRGAAMGDLHIIEDAALLVRGGVIQWVGPRAAAPTATHVHDLGGRAVVPGLVDPHTHAVWAGDRLSDWEAKLQGATYEEILARGGGIRSTMRATAAADVAELVALARPRLASLRASGATTTEVKSGYGLDFDAELRMLRAVRELQAEFELRPTLLIHVPPQEGRAEYVVGVCAELIPQVAREGLAEALDVFCEKEAFSVEETRTMFAAAQAHGLRVKLHADQFHAIGGTELACEVGALSVDHLEASGAAQIAALAASETVATILPGVTLHLGLPAAPGRQLIDSGAIVAIGTDLNPGSSPLFSTQLALALAVRLCLLTPAEALSACTVNAAYALGLSDRGSLSAGQRADFLVLNGQDWREVAYTLGGNAVAEVYLAGAQL | soluble
SLSEVEIEEVRLNPDEPQYTMDGLDGRRFDEQGYLKEHLSSKGAKQFPESSDIHFDSPHLVFFQEGRLLYEVGSDEAVYHTENKQVLFKNNVVLTKTADGKRQAGKVEAEKLHVDTESQYAQTDTPVSFQYGASHGQAGGMTYDHKTGMLNFSSKVKATIYDTKDM | not soluble
SLSTLKILLCTDNHLGYKENNSIQKKDSFNSFEEILFIAKKLNVDMILNSGDLFHKNKVSEYTLFKSMYIIRKAGKKLIPFYTIHGNHDYPYSYEYISPLDILNISNLINYIGKNNLNNIVVKPILLNKYKSKISIYAVGWMKDERLYRSFENNEVKFILPSDYKNRINILVLHQNRYIRNAYGNNTKNFIKESFIPKFIDLVIWGHEHFSKPYLEESILNSFYNIQLGSSVRTSICPNEYGDKFIGLLEIKNQRFRFLKINLETVRPFEMKDIKLADYELNFKSESVLKEFLHEQTHAILEKIKNNFSHE | not soluble
SLTAISKMTRGLDYYEVMGLTRSANDIDIRRAYRRLALKYHPDINKDGAAGDEFLRICEAYEVLCDPKTKGFYDLYGEDALKDGISDGNGGLKGPMYRFNPEESPKAVFERFFGTANPYEALEALSNQFESMTSEEAPARGKNKVYPLELTLEEIFHGCLKKVAHKRKVLLFSGEYVEEERQLTVDVKPGLPTGTRFVFEGEGNKTPKKEPGPVVFVLKPKPHPRFVRRGSDLVHKVTLPLHHALIGTTLDIRTLDDRDLKVPISDIMRPGSSLTVPGEGMPLPATPSARGNLVIEIDLLFPTHLTETQKMLLRSAFFLPPPTEQNEETKKALRDYEAAFKHDLKGWATVFKRL | not soluble
